# Assay results published in patent US9073989B2, “Antibiotic comprising an antibody mimetic, its preparation methods and uses thereof” (PROTEIN DESIGN LAB, LTD, priority 2011, dated 2015).
# Several values for one entry are separate records, joined by “and”; a condition that tells them apart may be missing. Equal entries are not always repeated. Entries after “also recorded” stand apart in the source; their conditions may differ. Where two headings read alike, the source gives them in different places.
# Assays:
# [1] = tested on: Mycobacterium tuberculosis (the standard strains H37RV); test: In vivo protection of mice infected by Mycobacterium tuberculosis; set-up: species or system BalB/c mice; details: for weight of mice during experiment: during 5 weeks treatment; for lung by microscope (pathological section): 5 weeks treatment, magnification 200, FIG. 11
# [2] = tested on: methicillin-resistant Staphylococcus aureus (ATCC BAA-42); test: Minimum inhibitory concentration by agar dilution method; format: cell-based
# [3] = tested on: Nesseria meningitidis (No. 29332); test: as above; format: cell-based; details: Embodiment 4, FIG. 6A, blood-chocolate medium with Columbia blood agar base
# [4] = tested on: multi-drug resistant Pseudomonas aeruginosa (isolated by West China Hospital, No. 13578); test: as above; format: cell-based; details: for MIC in terms of molecular weight standard: Embodiment 3, converted from μg/ml; for MIC: MH medium
# [5] = tested on: Nesseria meningitidis (No. 29332); test: In vivo protection of mice infected by fatal dose of Nesseria meningitidis; details: 1.5 mg/kg intravenous 1 hour after intraperitoneal fatal dose; for survival rate in 8 days: 10 mice per group
# Experimental: The mice were given an intraperitoneal injection of glucose solution of ferrous by 20 mg/kg, and 1 hour later an intraperitoneal injection of 0.5 ml of bacteria culture containing 1 share of Nesseria meningitidis cultrue solution (its CFU was 2.36×10^9/ml) and 1.5 share of 5% dry yeast solution. One hour later after being given intraperitoneal injection of fatal dose of the bacteria culture, the mice in experimental group were given an intravenous injection of the drugs and the mice in control group were given an intravenous injection of normal saline, all drugs were injected by 1.5 mg/kg), observation every 2 hours for 8 days, the death of mice as the positive results.
# [6] = tested on: vancomycin-resistant Enterococcus faecalis (ATCC 700802); format: cell-based; details: MH medium
# [7] = tested on: Nesseria meningitidis strain No. 29332; test: Inhibiting effect on growth of Nesseria meningitidis in liquid culture (growth curve, optical density); format: cell-based; details: 5 and 10 μg/ml, rabbit blood-chocolate medium, 37° C., hourly A595 nm, FIG. 4
# Experimental: The bacteria was strain No. 29332 Nesseria meningitidis (No. 29332 of bacteria Preservation Center in China, i.e. Center of Medical Devices of National Institute for the Control of Pharmaceutical & biological Products, SDA), two microlitres (μl) of bacteria solution (10^5 CFU/ml) was added in 10 ml rabbit blood-chocolate medium containing 50 mg beef extract, 100 mg tryptone, 50 mg NaCl, 30 mg K2HPO4 and 0.5-0.8 ml off fiber rabbit blood. Five groups were prepared. The first group was added 0.3 M NaCl+50 mM boric acid buffer fluid (i.e. blank preservative fluid for the novel antibiotic, by the same volume with the novel antibiotic solution in the group 4 and 5) as control. Penicillin sodium was added in the second group by 5 μg/ml. The novel antibiotic PMC-AM1 was added in the third group by 5 μg/ml. The novel antibiotic PMC-AM2 was added in the forth group by 5 μg/ml. The novel antibiotic PMC-AM1 was added in the fifth group by 10 μg/ml.
# Reactant liquid of the above five groups were respectively put into 100 ml conical flask, and cultured at 37° C. by 200 rpm 100 μl culture solution was sampled per hour and added onto 96-pore ELISA plate for measuring bacteria grown cloudiness by spectrophotometer (A595 nm) color comparison. The bacteria-growth curve was drawn up to compare the bacteriostasis efficacy of novel antibiosis.
# [8] = Embodiment 4, FIG. 6C, BM medium
# [9] = Pseudomonas aeruginosa, Embodiment 3, agar dilution, 37° C. 18-24 hours, FIG. 5, read-out: MIC
# [10] = Embodiment 3, agar dilution, 37° C. 18-24 hours, FIG. 5
# [11] = Embodiment 5, FIG. 7B, MH medium
molecule,measurement,setting,value
"NNC(=O)c1ccncc1 [isoniazid, reference compound]",weight of mice during experiment,[1],rise
"Cc1onc(-c2ccccc2)c1C(=O)N[C@@H]1C(=O)N2[C@@H]1SC(C)(C)[C@@H]2C(=O)O [oxacillin, reference compound]",MIC,[2]; [8],14.1 nmol
CC(C)(O/N=C(\C(=O)N[C@@H]1C(=O)N2C(C(=O)[O-])=C(C[n+]3ccccc3)CS[C@H]12)c1csc(N)n1)C(=O)O [ceftazidime],MIC,[3],3.02 nmol
same,MIC in terms of molecular weight standard,[4],29.3 nmol
same,MIC,"[4]; Embodiment 4, FIG. 6D",29.3 nmol
same,MIC,[4]; [9],16 µg/mL
penicillin,death of mice (survival outcome in words),[5],all died in two days
"CN[C@H](CC(C)C)C(=O)N[C@H]1C(=O)N[C@@H](CC(N)=O)C(=O)N[C@H]2C(=O)N[C@H]3C(=O)N[C@H](C(=O)N[C@H](C(=O)O)c4cc(O)cc(O)c4-c4cc3ccc4O)[C@H](O)c3ccc(c(Cl)c3)Oc3cc2cc(c3O[C@@H]2O[C@H](CO)[C@@H](O)[C@H](O)[C@H]2O[C@H]2C[C@](C)(N)[C@H](O)[C@H](C)O2)Oc2ccc(cc2Cl)[C@H]1O [vancomycin, reference compound]",MIC,"[6]; Embodiment 4, FIG. 6B",21.54 nmol
C[C@H]1COc2c(N3CCN(C)CC3)c(F)cc3c(=O)c(C(=O)O)cn1c23 [levofloxacin],MIC in terms of molecular weight standard,[4],43.2 nmol
same,MIC,"[4]; Embodiment 4, FIG. 6D",43.2 nmol
same,MIC,[4]; [9],8 µg/mL
"CC1(C)S[C@@H]2[C@H](NC(=O)[C@H](N)c3ccccc3)C(=O)N2[C@H]1C(=O)O [ampicillin, reference compound]",MIC,[2]; [8],21.55 nmol
same,MIC,[3],1.35 nmol
same,MIC,"[6]; Embodiment 4, FIG. 6B",10.78 nmol
gentamicin,survival rate in 8 days,[5],50%
same,MIC,[4]; [10],greater than 512 μg/ml
same,MIC in terms of molecular weight standard,[4],greater than 890 nMol
same,MIC,"[4]; Embodiment 4, FIG. 6D",> 889.4 nmol
"PMC-AM1: Fusion of antibody mimetic AM1 (VHCDR1-VHFR2-VLCDR3, Seq ID No.2) to C-terminus of Colicin Ia; Seq ID No.6 (protein, The amino acid sequence of antibiotic PMC-AM1) SDPVRITNPGAESLGYDSDGHEIMAVDIYVNPPRVDVFHGTPPAWSSFGNKTIWGGNEWVDDSPTRSDIEKRDKEITAYKNTLSAQQKENENKRTEAGKRLSAAIAAREKDENTLKTLRAGNADAADITRQEFRLLQAELREYGFRTEIAGYDALRLHTESRMLFADADSLRISPREARSLIEQAEKRQKDAQNADKKAADMLAEYERRKGILDTRLSELEKNGGAALAVLDAQQARLLGQQTRNDRAISEARNKLSSVTESLNTARNALTRAEQQLTQQKNTPDGKTIVSPEKFPGRSSTNHSIVVSGDPRFAGTIKITTSAVIDNRANLNYLLSHSGLDYKRNILNDRNPVVTEDVEGDKKIYNAEVAEWDKLRQRLLDARNKITSAESAVNSARNNLSARTNEQKHANDALNALLKEKENIRNQLSGINQKIAEEKRKQDELKATKDAINFTTEFLKSVSEKYGAKAEQLAREMAGQAKGKKIRNVEEALKTYEKYRADINKKINAKDRAAIAAALESVKLSDISSNLNRFSRGLGYAGKFTSLADWITEFGKAVRTENWRPLFVKTETIIAGNAATALVALVFSILTGSALGIIGYGLLMAVTGALIDESLVEKANKFWGISYWLHWIKQRPGQGLWIGSQSTHVPRT",lung by microscope (pathological section),[1],intact but had a little of cellular infiltration in parts
same,weight of mice during experiment,[1],rise
same,"observation of the mice's lung (TB nodules, necrosis)","[1]; mouse, in vivo, ip","intact, and had no nodules and necrosis of tuberculosis; also recorded: no TB nodules and necrosis"
same,MIC,[2]; [8],0.06 nmol
same,MIC,[2]; [11],0.06 nmol
same,MIC,[3],0.11 nmol
same,survival rate in 8 days,[5],90%
same,"bacteria growth (bacteriostasis efficacy, growth curve)",[7],can only be restrained by PMC-AM1
same,MIC,"[6]; Embodiment 4, FIG. 6B",0.23 nmol
same,MIC,"[6]; Embodiment 5, FIG. 7A",0.23 nmol
same,MIC,[4]; [10],8 µg/mL
same,MIC in terms of molecular weight standard,[4],0.23 nmol
same,"antibacterial effect stronger than ceftazidime, levofloxacin and gentamicin","[4]; Embodiment 3, ratio of molar MICs",127 to 3800 times and 127-3800 times
same,MIC,"[4]; Embodiment 4, FIG. 6D",0.91 nmol
same,MIC,"[4]; Embodiment 5, FIG. 7C",0.23 nmol
"Colicin Ia (protein, UniProt P06716 1-626, looked up, Wild-type bacterial toxin secreted by E. coli forming ion channels) Colicin-Ia: MSDPVRITNPGAESLGYDSDGHEIMAVDIYVNPPRVDVFHGTPPAWSSFGNKTIWGGNEWVDDSPTRSDIEKRDKEITAYKNTLSAQQKENENKRTEAGKRLSAAIAAREKDENTLKTLRAGNADAADITRQEFRLLQAELREYGFRTEIAGYDALRLHTESRMLFADADSLRISPREARSLIEQAEKRQKDAQNADKKAADMLAEYERRKGILDTRLSELEKNGGAALAVLDAQQARLLGQQTRNDRAISEARNKLSSVTESLNTARNALTRAEQQLTQQKNTPDGKTIVSPEKFPGRSSTNHSIVVSGDPRFAGTIKITTSAVIDNRANLNYLLSHSGLDYKRNILNDRNPVVTEDVEGDKKIYNAEVAEWDKLRQRLLDARNKITSAESAVNSARNNLSARTNEQKHANDALNALLKEKENIRNQLSGINQKIAEEKRKQDELKATKDAINFTTEFLKSVSEKYGAKAEQLAREMAGQAKGKKIRNVEEALKTYEKYRADINKKINAKDRAAIAAALESVKLSDISSNLNRFSRGLGYAGKFTSLADWITEFGKAVRTENWRPLFVKTETIIAGNAATALVALVFSILTGSALGIIGYGLLMAVTGALIDESLVEKANKFWGI",lung by microscope (pathological section),[1],the injury was little slighter than the control mouse's
same,mice died before sacrifice (from the forth week),"[1]; mouse, in vivo",1 mouse
same,MIC,[2]; [11],0.23 nmol
same,MIC,"[6]; Embodiment 5, FIG. 7A",0.91 nmol
same,MIC,"[4]; Embodiment 5, FIG. 7C",0.91 nmol
